Target: pigeon ovomucoid (pigeon)
Experiment: BLI; BLItz system; biotinylated POVO; recombinant flagellin

recombinant flagellin of Bacillus cereus HN001 (WR52_08290) (natural protein)
Kd: 3.69 nM
